# Laboratory results published in the RNAGym collection of RNA variant scans (doi:10.1073/pnas.2313332121).
# B1: TPR t1 (parent)
# chain: GACCAAUCUGCCCUCAGAGCUCGAGAACAUCUUCGGAUGCAGAGGAGGCAGGCUUCGGUGGCGCGAUAGCGCCAACGUCCUCAACCUCCAAUGCAUCCCACCACAUGAUGAUGCCUGAAGAGCCUUGGUUUUUUG
# Variants of: B1
# Test: polymerase ribozyme fitness, log enrichment relative to wild type (log ratio); higher = more active; in vitro selection for triplet polymerase activity
# In short: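 Mutant libraries were PCR-built and transcribed for each subunit of a heterodimeric triplet polymerase ribozyme and selected for one round in triplicate at −7 °C, frozen, before gel excision of extended constructs and streptavidin-bead capture. Input and output libraries were Illumina-sequenced, keeping genotypes with ≥10 input reads and ≥1 read per output. Fitness is a logarithmic ratio of genotype to wild-type enrichment, in base 2, using inverse-variance-weighted replicate averages.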
row,Variant,polymerase ribozyme fitness (log ratio)
1,GACCAAUCUGCCCUUAGAGCUCGAGAACAUCUUCGGAUGCAGAGGAGGCAGGCUUCGGUGGCGCGAUAGUACCAACGUCCUCAACCUCCAAUGCAUCCCACCACAUGAUGAUGCCUGAAGAGCCUUGGUUUUUUG [C15U C70U G71A],-1.62
2,GACCAAUCUGCCCUUAGAGCUCGAGAACAUCUUCGGAUGCAGAGGAGGCUGGCUUCGGUGGCCCGAUAGCGCCAACGUCCUCAACCUCUAAUGCAUCCCACCACAUGAUGAUGCCUGAAGAGCCUUGGUUUUUUG [C15U A50U G63C C89U],-3.78
3,GACCAAUCUGCCCUUAGAGCUCGAGAACAUCUUCGGAUGCAGAGGAGGCAGGCUUCGGUGGCGCGAUAGCGACAACGUCCUUAACCUCCAAUGCAUCCCACCACAUGAUGAUGCCUGAAGAGCCUUGGUUUUUUG [C15U C72A C82U],-1.42
4,GACCAAUCUGCCCUUAGAGCUCGAGAACAUCUUCGGAUGCACAGGAGGCAGGCUUCGGUGGCGCGAUAGCGCCAAUGUCCUCAACCUCCAAUGCAUCCCACCACAAGAUGAUGCCUGAAGAGCCUUGGUUUUUUG [C15U G42C C76U U106A],-4.25
5,GACCAAUCUGCCCUUAGAGCUCGAGAACAUCUUCGGAUGCAGAGGAGGCAGGCUUGGGUUGCGCGAUAGCGCCAACGGCCUCAACCUCCAAAGCAUCCCACCACAUGAUGAUGCCUGAAGAGCCUUGGUUUUUUG [C15U C56G G60U U78G U92A],-6.42
6,GACCAAUCUGCCCUUAGAGCUCGAGAACAUCUUCGGAUGCAGAGGAGGCAGGCUUCGGUGGCGCGAUAGCGCCGACGUCCUCAACCUACACUGCAUCCCACCACAUGAUGAUGCCUGAAGAGCCUUGGUUUUUUG [C15U A74G C88A A91C],-2.13
7,GACCAAUCUGCCCUUAGAGCUGGAGAACAUCUUCGGAUGCAGAGGAGGCAGGCGUCGGUGGCGCGAUAGCUCCAACGUCCUCAACCUCCAAUACAUCCCACCACAUGAUGAUGCCUGAAGAAUCUUGGUUUUUUG [C15U C22G U54G G71U G93A G122A C123U],-4.87
8,GACCAAUCUGCCCUUAGAGCUCGAGAACAUCUUCGGAUGCACAGGUGGCAGGCUUCGGUGGCGCGAUAGCGCCAACGUCCUCAACCUCCAAUGCAUCCCACCACAUGAUGAUGCCUGAAGAGCCUUGGUUUUUUG [C15U G42C A46U],-3.23
9,GACCAAUCUGCCCUUAGAGCUCGAGAACAUCUUCGGAUGCAGAGGAGGCAGGCUUUGGUGGCGCGAUAGCGCCAACGUCCUCAACCUCCAAUGCAUCCCACCACAUGAUGAUGCCUGAAGAGCCUUGGUUUUUUG [C15U C56U],-1.21
10,GACCAAUCUGCCCUUAGAGCUCGAGAACAUCUUCGGAUGCAGAGGAGGCAGGCUUCGGUGGCGCGAUAGCGCCAACGUCCUCAACCUCCAAUGCAUCCCACCACAUGAUGAUGACUGAAGAGCCUUGGUUUUUUG [C15U C114A],-3.36
11,GACCAAUCUGCCCUUAGAGCUCGAGAACAUCUUCGGAUGCAGACGAGGCAGGCUUCGGUGGCGCGAUAGCGCCAACGUCCUCUACCUCCAAUGCAUCCCCCCACAUGAUGAUGCCUGAAGAGCCUUGGUUUUUUG [C15U G44C A83U A100C],-3.3
12,GACCAAUCUGCCCUUAGAGCUCGAGAACAUCUUCGGAUGCAGAGGAGGCAGGCUUCGGUGGCGCGAUAGCGCCAACGUUCUCAACCUCCAAUGCAUCCCACCACAUGAUGUUGCCUGAAGUGCCUUGGUUUUUUG [C15U C79U A111U A121U],-3.53
13,GACCAAUCUGCCCUUAGAGCUCGAGAACAUCUUGGGAUGCAGAGGAGGCAGGUUUCGGUGGCGCGAUAGCGCCAACGUCCUCAACCUCCAAUGCAUCCCACCACAUGAUGAUGUCUGAAGAGCCUUGGUUUUUUG [C15U C34G C53U C114U],-5.11
14,GACCAAUCUGCCCUUAGAGCUCGAGAACAUCUUCGGAUGCAGAGGAGACAGGCUUCGGUGGCGCGAUAGCGCCAACGUCCUCAACCUCCAAUGCAUCCCACCACAUGAUGAUGCCUGAAGAGCCUUGGUUUUUUG [C15U G48A],-1.7
15,GACCAAUCUGCCCUUAGAGCUCGAGAACAUCUUCGGAUGCAGAGGAGGCAGGCUUCGGUGGCGCGAUAGCGCUAACGUCCUCAACCUCCAAUGAAUCCCACCACAUGAUGCUGCCUGAAGAGCCUUGGUUUUUUG [C15U C73U C94A A111C],-2.53
16,GACCAAUCUGCCCUUAGAGCUCGAGAACAUCUUCGGAUGCAGAGGAGGCAGGCUUCGGUGGCGCGAUAGCGCCAACGUCCUCAACCUCCAAUGCAUCCUACAACAUGAUGAUUCCUGGAGAGCCUUGGUUUUUUG [C15U C99U C102A G113U A118G],-7.09
17,GACCAAUCUGCCCUUAGAGCUCGAGAACAUCUUCGGAUGCAGAGGAGCCAGGCUUCGGUGGCGCGAUAGCGGCAACGUCCUCAACCUCCAAUGCAUCCCACCACAUGAUGAAGCCUGAAGAGCCUUGGUUUUUUG [C15U G48C C72G U112A],-0.505
18,GACCAAUCUGCCCUUAGAGCUCGAGAACAUCUUCCGAUGCAGAGGAGGCAGGCUUCGGUGGCGCGAUAUCGCCAACGUCCUCAACCUCCAAUGCAUCCCACCACAUGAUGAUGCCUGAAGAGCCUUGGUUUUUUG [C15U G35C G69U],-2.64
19,GACCAAUCUGCCCUUAGAGCUCGAGAACAUCUUCGGAUGCAGAGGAGGCAGGCUUCGGUGGCGCGAUAGCGCCAAGCUCCUCAACCUCCAAUGCAUCCCACCACAUGAUGAUGCCUGAAGAGACUUGGUUUUUUG [C15U C76G G77C C123A],-2.59
20,GACCAAUCUGCCCUUAGAGCUCGAGAACAUCUUCGGAUGCAGAGGAGGCUGGCUUCGGUGGCGCGAUAGCGCCAACGUCCUCAACCUCCAAUGCAUCCCACCACAUGAUGAUGCCUGAACAGCCUUGGUUUUUUG [C15U A50U G120C],-0.665
21,GACCAAUCUGCCCUUAGAGCUCGAGAACAUCUUCGCAUGCAGAGGAGGCAGGCUUCGGUGGCGCGAUAGCGCCAACGUCCUCAACCUCCAAUGCAUCCCACCACAUGAUGACGCCUGAAGAGCCUUGGUUUUUUG [C15U G36C U112C],-1.24
